According to US20230304010A1, “COMPOSITIONS AND METHODS FOR TREATING VIRAL INFECTIONS” (priority 2020, published 2023):

Experiments:
[1] = molecular target: SARS-CoV-2 Spike-Fc, Delta (B1 617 2/India) variant (SARS-CoV-2), P0DTC2
[2] = molecular target: SARS-CoV-2 Spike-Fc, Alpha (B1.1.7/United Kingdom) variant (SARS-CoV-2), P0DTC2
[3] = molecular target: SARS-CoV-2 Spike-Fc, Gamma (P1/Brazil) variant (SARS-CoV-2), P0DTC2
[4] = molecular target: SARS-CoV-2 Spike-Fc, Beta (B1.351/South Africa) variant (SARS-CoV-2), P0DTC2
[5] = molecular target: SARS-CoV-2 Spike-Fc, Epsilon (B1429) variant (SARS-CoV-2), P0DTC2
[6] = molecular target: ACE2, Q9BYF1; assay: inhibitor screening kit; SARS-CoV-2 Spike:ACE2 (Example 3 assay)
Sequence of ACE2, Q9BYF1 (Q9BYF1 18-740 limits assumed): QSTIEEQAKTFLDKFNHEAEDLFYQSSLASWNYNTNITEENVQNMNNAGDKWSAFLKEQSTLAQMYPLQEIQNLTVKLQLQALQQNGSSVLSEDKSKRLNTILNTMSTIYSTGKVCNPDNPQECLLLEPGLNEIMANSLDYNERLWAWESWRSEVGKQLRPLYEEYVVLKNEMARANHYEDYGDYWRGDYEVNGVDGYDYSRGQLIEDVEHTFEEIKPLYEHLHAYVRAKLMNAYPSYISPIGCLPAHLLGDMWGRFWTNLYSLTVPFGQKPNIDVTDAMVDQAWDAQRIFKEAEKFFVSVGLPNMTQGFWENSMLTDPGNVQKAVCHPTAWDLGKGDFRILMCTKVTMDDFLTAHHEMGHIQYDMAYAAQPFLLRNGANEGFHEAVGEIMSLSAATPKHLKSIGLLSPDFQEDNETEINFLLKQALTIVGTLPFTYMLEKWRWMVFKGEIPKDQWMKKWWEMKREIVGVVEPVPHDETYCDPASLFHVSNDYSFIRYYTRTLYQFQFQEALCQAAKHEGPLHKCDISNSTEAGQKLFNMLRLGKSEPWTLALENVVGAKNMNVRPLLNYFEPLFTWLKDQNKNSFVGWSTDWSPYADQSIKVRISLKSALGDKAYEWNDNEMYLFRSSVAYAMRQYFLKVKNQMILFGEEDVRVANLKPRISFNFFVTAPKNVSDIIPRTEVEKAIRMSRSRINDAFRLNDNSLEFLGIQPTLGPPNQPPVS

[7] = molecular target: ACE2, Q9BYF1; assay: inhibitor screening kit; ACE2:SARS-CoV-2 Spike (Example 4 assay)

B1: Seq28 (LNCOV-20) (peptide)
peptide: KTFLDKFNHEAEDLFPGPKWSAFLKEQSTLAQMYG
modifications: not checked
IC50 [1]: 29.2 nM
IC50 [2]: 24.6 nM
IC50 [3]: 41.7 nM
IC50 [4]: 31.5 nM
IC50 [5]: 28.8 nM

B2: Seq13 (LNCOV-11) (peptide)
peptide: KVGGNYNYKLWRALWRLWRSLWRLLWK
modifications: not checked
IC50 [6]: > 10000 nM
IC50 [7]: > 10000 nM

B3: seq14 (LNCOV-12) (peptide)
peptide: GNYNYLYRLLWRALWRLWRSLWRLLWK
modifications: not checked
IC50 [6]: > 10000 nM
IC50 [7]: > 10000 nM

B4: Seq18 (LNCOV-16) (peptide)
peptide: VEGFNCYFLWRALWRLWRSLWRLLWK
modifications: not checked
IC50 [6]: > 10000 nM
IC50 [7]: > 10000 nM

B5: Seq33 (LNCOV-18) (peptide)
peptide: EQAKTFLDKFNHEAEDLFLWRALWRLWRSLWRLLWK
modifications: not checked
IC50 [1]: 25.7 nM
IC50 [2]: 17.8 nM
IC50 [3]: 20.2 nM
IC50 [4]: 28.8 nM
IC50 [5]: 31.4 nM
